Results: patent US20100062980A1, “THERAPEUTIC USES OF BETA-ANTAGONISTS” (priority 2006, published 2010)
Entries after “also recorded” stand apart in the source; their conditions may differ.

Tests used:
[1] = test system: intrinsic pathway of blood coagulation (human plasma); assay: Anticoagulant activity, recalcification time; format: biochemical; details: 50 μM protein per assay, vs control
Procedure: (§1) The anticoagulant activity of the purified protein was tested by two coagulation tests using a BBL fibrometer. Blood plasma was collected from healthy human volunteers.
Recalcification time—The recalcification times were measured according to the method of Langdell et al. (26). 100 μl of 50 mM Tris-HCl buffer (pH 7.4), 100 μl of plasma and 50 μl of the protein dissolved in the assay buffer were preincubated for 2 min at 37° C. Clotting was initiated by the addition of 50 μl of 50 mM CaCl2.

[2] = test system: Langendorff isolated perfused rat hearts; assay: Langendorff isolated perfused heart; details: 5 μM in KH solution, 10 min
Procedure: Rats were anesthetized with 7% chloral hydrate (5 ml/kg). 2 ml of 50 I.U. heparin (David Bull Laboratories, Warwick, UK) was injected i.p. 15 min prior to sacrificing the animal. The heart was excised rapidly and placed in oxygenated Krebs-Henseleit (KH) solution (in mM/1: NaCl 118.0, KCl 4.5, KH2PO4 1.4, MgSO4 1.2, NaHCO3 25, CaCl2 1.4 and glucose 11; pH 7.4) before the aorta was cannulated on the Langendorff apparatus. Non-recirculating mode of retrograde perfusion with KH solution was carried out at a constant flow (6-7 ml/min) at 37° C. The buffer was continuously bubbled with 95% O2 and 5% CO2. The hearts were allowed to equilibrate for 30 min and in study groups the buffer flow was switched to a second reservoir which contained 5 μM of the protein dissolved in KH solution, plain KH solution was passed for further 15 min in case of control group.
A water-filled latex balloon was attached to a pressure transducer and inserted through the mitral valve into the left ventricle (LV) through an incision in the left atrium. The pressure transducer was connected to a Powerlab (ADInstruments, Castle Hill, NSW, Australia) data recording system. The following indices of cardiac performance were measured and averaged from ten beats for each condition: heart rate (HR, in beats/min) and left ventricle diastolic end pressure (LVDEP, in mmHg), which is an index of contractile activity. […]

[3] = test system: extrinsic pathway of blood coagulation (human plasma); assay: Anticoagulant activity, prothrombin time; format: biochemical; details: 50 μM protein per assay, vs control
Procedure: as §1
Prothrombin time—The prothrombin times were measured according to the method of Quick (25). 100 μl of 50 mM Tris-HCl buffer (pH 7.4), 100 μl of plasma and 50 μl of the protein dissolved in the assay buffer were preincubated for 2 min at 37° C. Clotting was initiated by the addition of 150 μl of thromboplastin with calcium reagent (Sigma-Aldrich, St Louis, Mo.).

Swiss albino male mice = format: in vivo; details: mice
From the text: (§2) Swiss albino male mice (˜20 g) were used for the in vivo toxicity study. Male Sprague-Dawley (SD) rats were used for electrocardiogram (ECG) monitoring (3-4 weeks old, ˜80-100 g) and the Langendorff isolated perfused heart experiments (8 weeks old, ˜250 g). Animals were acquired from the university Laboratory Animal Center (LAC) and were acclimatized to the Animal Holding Unit surroundings for at least 3 days prior to the experiments. Animals were kept under standard conditions with food and water available ad lib. All animal experiments were conducted according to the protocol (776/05a) approved by the Institutional Animal Care and Use Committee (IACUC) of the National University of Singapore.
(§3) The protein was dissolved in 200 μl of 0.9% NaCl (Braun, Malaysia) and administered through the intra-peritoneal (i.p.) route for the in vivo toxicity study in mice. Intra-tail vein (i.t.v.) administration was done in the ECG monitoring study in rats. The various protein doses were dissolved in 200 μl of 0.9% NaCl solution and injected into the tail vein using a 27 G ½ needle (Becton Dickinson, Franklin Lakes, N.J.) held at an angle of about 10° to the tail. The infusion was made very slowly and at a steady rate.
After purification of the protein from snake venom, i.p. doses of 1 mg/kg, 10 mg/kg and 100 mg/kg were administered to healthy male mice (three animals per group) and the symptoms were observed and recorded. 0.9% NaCl was injected as control. Postmortem examinations were conducted on the animals after their death/sacrifice.

anesthetized male rats = assay: Electrocardiogram monitoring and heart rate determination; format: in vivo, Sprague-Dawley rats; details: i.t.v., 1 mg/kg, 10 min after administration (FIG. 8)
From the text: as §2, §3
For electrocardiogram (ECG) measurements, Sprague-Dawley rats were anesthetized with an i.p. dose of 7% chloral hydrate (5 ml/kg). […]

B1: β-cardiotoxin: three-finger toxin protein isolated from Ophiophagus hannah (king cobra) venom, SEQ ID No.3, β-adrenergic receptor blocker (protein)
chain: RKCLNTPLPLIYTTCPIGQDKCVKMTIKKLPSKYDVIRGCIDICPKSSADVEVLCCDTNKCNK
[1]
  change in clotting time, recalcification time: does not show any hemolytic or anticoagulant activity; also recorded: did not cause any significant changes in the clotting time
[2]
  change in contractility (LVDEP): without any significant change in the contractility; also recorded: without affecting the contractility
  change in heart rate: dose-dependent decrease of the heart rate; also recorded: marked reduction in the heart rate
[3]
  change in clotting time, prothrombin time: does not show any hemolytic or anticoagulant activity; also recorded: did not cause any significant changes in the clotting time
Swiss albino male mice; i.p., 100 mg/kg
  postmortem examination: did not reveal any hemorrhage or visual damage to internal organs
  time to death: about 30 min
Swiss albino male mice; intraperitoneal
  dose up to which the protein was not lethal: ≤ 10 mg/kg
Anesthetized male rats
  change in heart rate (ECG): dose-dependent decrease of the heart rate; also recorded: decrease in the heart rate; also recorded: dose-dependent decrease in heart rate
